Assay results published in paper PMC9692295.

Key:
[1] = molecular target: Munia bornavirus 1 (MuBV-1) phosphoprotein oligomerisation domain (POD), residues 65 to 172 (munia bornavirus 1 (MuBV-1)); experiment: crystal structure
[2] = molecular target: Munia bornavirus 1 (MuBV-1) phosphoprotein oligomerisation domain (POD), residues 65 to 172 (munia bornavirus 1 (MuBV-1)); experiment: SEC-SAXS
[3] = molecular target: Gaboon viper virus 1 (GaVV-1) phosphoprotein oligomerisation domain (POD), residues 67 to 178 (Gaboon viper virus 1 (GaVV-1)); experiment: crystal structure
[4] = molecular target: Gaboon viper virus 1 (GaVV-1) phosphoprotein oligomerisation domain (POD), residues 67 to 178 (Gaboon viper virus 1 (GaVV-1)); experiment: SEC-SAXS

## Munia bornavirus 1 (MuBV-1) phosphoprotein oligomerisation domain (POD), residues 65 to 172 (domain or fragment)
[1]
  stoichiometry N: 4
[2]
  stoichiometry N: 4

## Gaboon viper virus 1 (GaVV-1) phosphoprotein oligomerisation domain (POD), residues 67 to 178 (domain or fragment)
[3]
  stoichiometry N: 4
[4]
  stoichiometry N: 4
